Reference: the supplement of paper PMC12764529
± gives the half width of the 95% confidence interval.

Experiments:
[1] = folding stability dG unfold (combined trypsin and chymotrypsin); higher = more stable
How it was run: (§1)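 How resistant each design was to proteolysis was captured as K50, inferred by Bayesian fitting of sequencing counts. Unfolding free energy was then derived relative to a sequence-predicted unfolded-state K50 and a shared folded-state K50, per protease or combined. Digestion used trypsin and chymotrypsin at 11 threefold-diluted concentrations plus a no-protease condition, on mini-proteins under 80 residues without cysteine in a PA-tagged cDNA display construct. Designs were kept only when AlphaFold2 dimer inter-PAE was above 15.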

[2] = folding stability dG unfold from chymotrypsin proteolysis; higher = more stable
How it was run: as §1

[3] = folding stability dG unfold from trypsin proteolysis; higher = more stable
How it was run: as §1

Sequence	folding stability dG unfold [1]	folding stability dG unfold [2]	folding stability dG unfold [3]
SAGGSAKKKIIEIKIKVKTKEEAKEAIEKLSEELKKKIKKIEIVEIKEKDGEYYVKIKIEVPPNEKSAGGSA [r15_244_TrROS_Hall]	2.25 ± 0.14 kcal/mol	2.32 ± 0.075 kcal/mol	1.97 ± 0.063 kcal/mol
SAGMTVTLTVSEAEFNALFGPDKDAEAIAAHLESQGYVIKSISTTSSTDPETGGRTLTITLDVEPPLVSAGG [r19_376_JUSTAS]	3.54 ± 0.071 kcal/mol	3.603 ± 0.036 kcal/mol	3.29 ± 0.09 kcal/mol
SMTPEEEAKRKAEEEAEKLKEEIKKKLKEEGVPKNVTFKFERDIEITLTDENGNVIGTRKIKIKFTVPLPSA [r9_494_JUSTAS]	1.85 ± 0.39 kcal/mol	1.79 ± 0.13 kcal/mol	2.14 ± 0.29 kcal/mol
SAGGSAGGSASPSYLLTVTVYRPGGNPLSRRVFPPSVSPAEVEAWLATLPSDYSWEVSREPVSAGGSAGGSA [r18_431_JUSTAS]	2.59 ± 0.048 kcal/mol	2.95 ± 0.022 kcal/mol	0.957 ± 0.051 kcal/mol
SAGGSAGGSMKTVEITIPFYSTTTDPVPSLGLLKTYLEEPEIKLKISPEEYKKLKKTPILKELSAGGSAGGS [r12_1015_JUSTAS]	0.234 ± 0.27 kcal/mol	0.412 ± 0.26 kcal/mol	-0.229 ± 0.33 kcal/mol
SAGGSNVVEVEVEELPDGTVVLRVRVLRLLPNGELGGVVERPFVFPRELFENIPLEEIVRRAVEEGSAGGSA [r2_421_TrMRF]	3.63 ± 0.072 kcal/mol	3.758 ± 0.032 kcal/mol	3.39 ± 0.081 kcal/mol
SAGGKAKIVEIKYNEETGTVTIKIKNEDGEEYEISIKLPPGAKIEIDEDGNITIKDIPAEQIEVRKVSAGGS [r16_515_TrROS_Hall]	1.46 ± 0.12 kcal/mol	1.68 ± 0.056 kcal/mol	0.895 ± 0.03 kcal/mol
SAGGSAGGSAGGKTLKLTLTLKVEVKETVTTTTADGTTEERPVKEVEVKLTATIDLSDLSAGGSAGGSAGGS [r10_355_TrROS_Hall]	4 ± 0.3 kcal/mol	4.38 ± 0.2 kcal/mol	3.04 ± 0.24 kcal/mol
SAGGSGPSAPRTLTLDLPELPPGVKITVTVDFPGGRTFTGGVTERTATVDLPVPDGLEVESVTVQLESAGGS [r16_179_JUSTAS]	0.0729 ± 0.085 kcal/mol	0.00426 ± 0.16 kcal/mol	0.00568 ± 0.1 kcal/mol
SAGKPKELAKKIAEKLAKEFEKKHPDVKIEKVEVKKIEVNPIEGYVKIDIVMYGKNGKLIYKPKITIKSAGG [r19_53_TrMRF]	3.63 ± 0.14 kcal/mol	3.96 ± 0.083 kcal/mol	3.22 ± 0.27 kcal/mol
SAGGSAGGSAGEKPVYYARVTEVKYNPENKELEIKLENGETITLSLEELKSLKPGDIIRISAGGSAGGSAGG [r11_124_TrROS_Hall]	1.97 ± 0.065 kcal/mol	2 ± 0.023 kcal/mol	1.88 ± 0.057 kcal/mol
SAGGSAGGSAPYFVRIKIENPDNGKPHSIEIPPNMTPEQAKEMAEELAEMHGWKITDVEYFPSAGGSAGGSA [r18_322_TrROS]	0.371 ± 0.068 kcal/mol	0.433 ± 0.11 kcal/mol	0.227 ± 0.088 kcal/mol
SAGGSAGGSMKIKPGQVVKIKVEKDGKIYEFEAKIDPKTGKLVEIKSAEELKGLKIKEIEIVPSAGGSAGGS [r12_6_TrROS_Hall]	1.99 ± 0.062 kcal/mol	2.274 ± 0.016 kcal/mol	1.14 ± 0.027 kcal/mol
SAGGSAKIKITIEYDEETGEVRIKIEVDGKEYEITLSREELANMTIEELAKKLGVEIEEVEIYPVPSAGGSA [r15_801_TrROS_Hall]	3.35 ± 0.3 kcal/mol	2.92 ± 0.28 kcal/mol	3.35 ± 0.24 kcal/mol
SAGGTAEELAKNIADNLQKAGWIKKVEVEVHPSPDGNIMVRIEIKIEPPPPPPPPKVEYDENGKPRYDSAGG [r13_957_TrROS]	0.924 ± 0.39 kcal/mol	0.662 ± 0.23 kcal/mol	1.04 ± 0.12 kcal/mol
SAGGSAGGSAVITTETGGDSTVTTTTSLTGEGGTLTTTTTTTTTDGTTTTTTTTTDTGLSPTSSAGGSAGGS [r12_769_JUSTAS]	2.16 ± 0.034 kcal/mol	1.99 ± 0.024 kcal/mol	2.41 ± 0.062 kcal/mol
SKKKKKLTAEEIAKKLEEKLKEEFGIEEIKITKIEFDKETKEITITMEITYKKKKNEKITITKKIKVEDLSA [r9_1002_TrROS_Hall]	2.28 ± 0.63 kcal/mol	2.5 ± 0.12 kcal/mol	2.08 ± 0.24 kcal/mol
SAGGSAERVLIEAESLEEAKAALEELGVTRVEEREVDGKRYLILVDLDDPEKIEVFSREELEKLLKSAGGSA [r15_11_TrROS_Hall]	1.55 ± 0.083 kcal/mol	1.78 ± 0.093 kcal/mol	0.935 ± 0.034 kcal/mol
SAGGSAGGSAGGMATTTTKIEIYPGTGKVKTTTTVTDPSTGTTTTTTTTEETSLEELTSSAGGSAGGSAGGS [r10_173_JUSTAS]	0.345 ± 0.13 kcal/mol	0.657 ± 0.082 kcal/mol	-0.0031 ± 0.05 kcal/mol
SAGGSAGGMAKVKILKIKPVNTGEDGSKSVEIEVEFENPNPEVAKAFVEEIAKKLGFEEVEDTTSAGGSAGG [r6_317_TrMRF]	0.406 ± 0.28 kcal/mol	0.687 ± 0.15 kcal/mol	0.43 ± 0.079 kcal/mol
SAMKKITLDVYRPPDKLLVTVSFPETGKTVTLPFTSEEALREEIVKKLGLSPEELEIVDRKEKELSPELLSA [r9_909_JUSTAS]	0.46 ± 0.13 kcal/mol	0.623 ± 0.074 kcal/mol	0.194 ± 0.054 kcal/mol
